Test results reported in patent publication US12564637B2, “Nucleic acid mazzocchio and methods of making and use thereof” (The University of Hong Kong, priority 2019, dated 2026).

What was measured:
[1] = Doxorubicin loading/encapsulation by quenching of doxorubicin fluorescence; format: binding
Experimental: The DNA mazzocchio (from Example 1) and DNA tetrahedron nanostructures were made through an annealing process. The multiple single-stranded DNAs were mixed in equal ratio and placed in a thermal cycler to heat up (95° C. for 5 minutes) followed by slow cooling (overnight down to 20° C.).
10 μM of doxorubicin was incubated with various concentrations of the DNA mazzocchio and DNA tetrahedron nanostructures (as shown on the X-axis of FIG. 2) for 1 hour at room temperature. Then, 13 μl of mixture was placed in a 384-well microtiter plate and inserted in the plate reader. The fluorescence was measured using a plate reader (Varioskan Flash by Thermo Fisher Scientific) at the following parameters: Excitation 488 nm/Emission 595 nm; bandwidth 12 nm; measurement time: 500 ms. Error bars were obtained as standard error from triplicate experiments.
Since the intercalation of doxorubicin inhibited its fluorescence, the loading efficiency could be determined by the half maximal inhibitory concentration (IC50).

[2] = Diameter of the nanostructure by transmission electron microscopy (TEM); format: physicochemical; details: images analyzed by ImageJ
Experimental: TEM was used to characterize the final DNA mazzocchio nanostructure. 5 μl of DNA mazzocchio samples were first adsorbed onto glow-discharged 400 mesh copper grids (Ted Pella, Inc.) for 1 minute. This was followed by staining with 2% uranyl acetate for 1 minute. The stained samples were washed twice by distilled water to remove excess uranyl acetate. Stained DNA mazzocchio samples on the grid were visualized using a Philips CM 100 Transmission Electron Microscope with 100 kV operating voltage. Electron photomicrographs of DNA mazzocchio were captured with magnification from 73,000×-105,000× on different positions of the grid. To experimentally determine the diameter of the DNA mazzocchio, images were analyzed by the ImageJ software.

B1: mazzocchio: DNA nanostructure of 16 hexagonal subunits, each composed of 12 single-stranded DNA oligonucleotides (SEQ ID NOs: 1-12) (nucleic acid)
chain 1: GATAGGCCGAGATCTGAGGATGCTGGCTCACGCCATTGGCTCGCGACCCCGTCCGCTAGACGTTATGCACAAGGCGTTGTCATTAGATGCTTAGGTGCTCAGGCCGTAATGAGGCCGCTTGGCTGCGTTCCTCCGCCGCTTGGGAACAGCCCCGC
chain 2: TCCAGCTCTGCGGACGGGGTCGCGAGCCATTCGAGGGCT
chain 3: TCGCCTGTAATACGCCTTGTGCATAACGTCTTGCCAACCC
chain 4: TGCCCGTACCCTGGTGCACCTAAGCATCTAATGACTCTGCGGAAGA
chain 5: TACCCCACTTTAGCGATAGCGGCCTCATTACGGCCTGTGCTACCCGTACGGA
chain 6: ATCAGTACGATTGGCGTGAGCCAGCATCCTCTAGCGGCGGAGGAACGCAGCCTAGGCGGAACTCTTCGG
chain 7: TCGCTAAAGTGGGGTACCGAAGAGTTCCGCCT
chain 8: GATCTCGGCCTATCGCGGGGCTGTTCCC
chain 9: TCGTACTGATGAGCCCTCGA
chain 10: GAGCTGGAGGGTTGGC
chain 11: TTACAGGCGATCTTCCGCAG
chain 12: CCAGGGTACGGGCATCCGTACGGGTAGC
modifications: 16 hexagonal subunits assembled; Synthetic sequence - strand 1; Synthetic sequence - strand 2; Synthetic sequence - strand 3; Synthetic sequence - strand 4; Synthetic sequence - strand 5; Synthetic sequence - strand 6; Synthetic sequence - strand 7; Synthetic sequence - strand 8; Synthetic sequence - strand 9; Synthetic sequence - strand 10; Synthetic sequence - strand 11; Synthetic sequence - strand 12
IC50 ([1]; 10 μM doxorubicin, 1 hour at room temperature, Ex 488 nm/Em 595 nm, triplicate, read-out: half maximal inhibitory concentration (IC50) of doxorubicin fluorescence (loading efficiency)): 480 nM | effectiveness in carrying doxorubicin as compared to the tetrahedron ([1]; comparison of the IC50 values): three times more effective | average diameter of the nanostructures [2]: 49.30±10.37 nm
